For the assay, the target named is egln1_human EGLN1 (UniProt Q9GZT9).
Sequence of egln1_human EGLN1 (Q9GZT9 whole entry, looked up): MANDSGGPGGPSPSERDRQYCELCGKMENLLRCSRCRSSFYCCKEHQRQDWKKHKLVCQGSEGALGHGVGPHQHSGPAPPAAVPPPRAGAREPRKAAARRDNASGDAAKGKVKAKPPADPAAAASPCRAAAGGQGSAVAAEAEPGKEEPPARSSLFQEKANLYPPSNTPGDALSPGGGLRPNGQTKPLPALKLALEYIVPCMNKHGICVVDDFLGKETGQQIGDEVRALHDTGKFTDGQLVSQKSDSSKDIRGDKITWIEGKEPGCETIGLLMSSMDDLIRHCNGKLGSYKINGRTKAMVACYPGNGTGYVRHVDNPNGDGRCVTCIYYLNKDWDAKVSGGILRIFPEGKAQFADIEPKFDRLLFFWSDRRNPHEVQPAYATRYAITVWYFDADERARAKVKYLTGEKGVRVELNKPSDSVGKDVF

Sequence of Endothelial PAS domain-containing protein 1 (Homo sapiens), Q99814 N203H (Q99814 whole entry N203H, the tested form may be a part): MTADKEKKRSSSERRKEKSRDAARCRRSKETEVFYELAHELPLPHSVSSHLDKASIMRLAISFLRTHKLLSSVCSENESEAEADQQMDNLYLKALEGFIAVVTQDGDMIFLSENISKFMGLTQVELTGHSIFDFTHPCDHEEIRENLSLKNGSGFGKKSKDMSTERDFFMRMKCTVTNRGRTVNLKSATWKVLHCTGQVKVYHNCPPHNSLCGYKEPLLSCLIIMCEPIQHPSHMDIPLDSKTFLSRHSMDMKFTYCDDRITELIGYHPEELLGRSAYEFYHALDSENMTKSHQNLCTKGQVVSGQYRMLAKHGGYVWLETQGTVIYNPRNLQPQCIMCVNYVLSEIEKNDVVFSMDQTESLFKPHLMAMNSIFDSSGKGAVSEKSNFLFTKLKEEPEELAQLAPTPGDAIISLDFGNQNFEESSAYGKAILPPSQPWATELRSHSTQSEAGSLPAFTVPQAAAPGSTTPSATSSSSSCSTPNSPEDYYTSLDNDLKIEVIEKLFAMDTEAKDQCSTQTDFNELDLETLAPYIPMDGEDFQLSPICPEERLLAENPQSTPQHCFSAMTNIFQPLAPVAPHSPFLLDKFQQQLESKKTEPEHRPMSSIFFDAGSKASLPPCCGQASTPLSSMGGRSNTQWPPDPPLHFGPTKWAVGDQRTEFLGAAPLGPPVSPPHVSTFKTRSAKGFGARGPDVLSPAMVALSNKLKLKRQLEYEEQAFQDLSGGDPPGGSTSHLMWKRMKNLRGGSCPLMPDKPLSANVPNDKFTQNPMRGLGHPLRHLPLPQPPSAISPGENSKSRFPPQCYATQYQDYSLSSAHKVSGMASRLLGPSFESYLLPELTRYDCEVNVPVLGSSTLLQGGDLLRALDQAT
Sequence of Endothelial PAS domain-containing protein 1 (Homo sapiens), Q99814 G724W (Q99814 whole entry G724W, the tested form may be a part): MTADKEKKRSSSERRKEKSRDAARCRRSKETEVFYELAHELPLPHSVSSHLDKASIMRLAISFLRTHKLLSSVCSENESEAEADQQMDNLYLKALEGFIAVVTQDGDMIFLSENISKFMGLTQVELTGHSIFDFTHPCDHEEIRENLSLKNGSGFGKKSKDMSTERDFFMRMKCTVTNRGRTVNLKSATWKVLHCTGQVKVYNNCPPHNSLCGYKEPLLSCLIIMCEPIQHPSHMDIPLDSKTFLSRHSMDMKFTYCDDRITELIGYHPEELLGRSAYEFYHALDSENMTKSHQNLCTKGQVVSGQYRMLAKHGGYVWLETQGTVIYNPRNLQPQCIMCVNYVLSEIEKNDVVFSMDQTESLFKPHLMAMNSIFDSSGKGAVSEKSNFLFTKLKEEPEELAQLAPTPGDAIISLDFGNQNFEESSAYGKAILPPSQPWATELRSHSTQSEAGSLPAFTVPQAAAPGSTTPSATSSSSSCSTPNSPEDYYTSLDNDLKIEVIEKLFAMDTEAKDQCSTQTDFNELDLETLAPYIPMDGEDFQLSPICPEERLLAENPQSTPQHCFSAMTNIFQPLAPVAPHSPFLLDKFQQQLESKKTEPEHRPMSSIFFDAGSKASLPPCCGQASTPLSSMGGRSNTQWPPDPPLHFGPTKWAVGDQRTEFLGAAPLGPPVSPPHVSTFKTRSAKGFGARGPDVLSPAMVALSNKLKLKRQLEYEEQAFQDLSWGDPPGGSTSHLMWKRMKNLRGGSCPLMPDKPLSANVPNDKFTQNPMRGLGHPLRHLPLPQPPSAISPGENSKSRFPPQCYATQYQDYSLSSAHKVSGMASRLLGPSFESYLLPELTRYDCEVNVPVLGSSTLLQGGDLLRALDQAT

With “Endothelial PAS domain-containing protein 1 (Homo sapiens), Q99814 G724W”, the “effect of a mutation on the interaction” value is “with no effect”.

In the case of “Endothelial PAS domain-containing protein 1 (Homo sapiens), Q99814 N203H”, the “effect of a mutation on the interaction” value is recorded as “increasing interaction strength”.

These data come from IntAct's records for PubMed 30487161.
